In US20260125649A1, “MEDIUM COMPOSITION AND METHOD FOR CULTURING MESENCHYMAL STEM CELLS” (ACADEMIA SINICA, priority 2018, published 2026):

System: EpICD binding to the Oct4 promoter
Assay: ChIP of EpICD binding to the Oct4 promoter
Type: cell-based, human
Conditions: EpEX 3 μg/mL, ChIP-qPCR
Procedure: FIG. 12. EpEX increases the binding of EpICD to the promoter of Oct4 by inhibiting let7. (A) MSCs were transfected with let7 inhibitor or mimetics then treated with EpEX (3 μg/mL). Binding of EpICD to the Oct4 promoter was examined by chromatin immunoprecipitation (ChIP). EpICD was pulled down by a specific anti-EpICD antibody. The cross-linked DNA was isolated and then probed by qPCR with specific primers for the Oct4 promoter. (B) MSCs were transfected with let7 inhibitor or mimetics then treated with EpEX (3 μg/mL). Binding of EpICD-HMGA2 was examined by sequential ChIP. EpICD was pulled down by a specific anti-EpICD antibody, followed by pull-down with a HMGA2 antibody. To detect bound Oct4 promoter, the cross-linked DNA was isolated and then amplified by qPCR with specific primers.
We performed chromatin immunoprecipitation (ChIP) with the Pierce™ Magnetic ChIP Kit (Thermo Fisher Scientific), to according the manufacturer's instructions. In brief, the protein-DNA complexes were cross-linked with 1% formaldehyde and quenched by adding glycine to a final concentration of 200 mM. […]
The immunoprecipitated DNA was recovered by a PCR purification kit (Thermo Fisher Scientific), and the purified DNA was subjected to real time quantitative PCR for further analysis. Immunoprecipitation/input was calculated for each gene and each gene was further normalized to the level of mouse β-actin promoter. […]

B1: EpEX: extracellular domain of human EpCAM, 265 amino acids in length (SEQ ID NO: 2) (protein, listed as Homo sapiens)
chain: MAPPQVLAFGLLLAAATATFAAAQEECVCENYKLAVNCFVNNNRQCQCTSVGAQNTVICSKLAAKCLVMKAEMNGSKLGRRAKPEGALQNNDGLYDPDCDESGLFKAKQCNGTSMCWCVNTAGVRRTDKDTEITCSERVRTYWIIIELKHKAREKPYDSKSLRTALQKEITTRYQLDPKFITSILYENNVITIDLVQNSSQKTQNDVDIADVAYYFEKDVKGESLFHSKKMDLTVNGEQLDLDPGQTLIYYVDEKAPEFSMQGLK
binding of EpICD to the promoter of Oct4: increases
